Reference: PMC5589592, “Direct inhibition of STAT signaling by platinum drugs contributes to their anti-cancer activity” (Oncotarget, 2017)
Square brackets hold non-standard residues; d marks the D form. Ends that are not written are not given here. pY = N[C@@H](Cc1ccc(OP(=O)(O)O)cc1)C(=O)O

Biological target: T1, recombinant human STAT3, full-length, biotinylated through an N-terminal avi-tag (human, UniProt P40763 1-770, biotin on the avi-tag)
T1 construct: also called biotinylated STAT; full-length protein; not shown: avi-tag, N-terminal, kept
Test: AlphaScreen or HTRF; biotinylated STAT incubated 90 min with (or without) a platinum compound and FITC-pTyr peptide, then streptavidin-coated donor beads and anti-FITC acceptor beads; detection at 570 nm; cisplatin 1, 3, 10 or 30 uM inhibited the signal
Conditions: both partners purified

T1 sequence (P40763 whole entry): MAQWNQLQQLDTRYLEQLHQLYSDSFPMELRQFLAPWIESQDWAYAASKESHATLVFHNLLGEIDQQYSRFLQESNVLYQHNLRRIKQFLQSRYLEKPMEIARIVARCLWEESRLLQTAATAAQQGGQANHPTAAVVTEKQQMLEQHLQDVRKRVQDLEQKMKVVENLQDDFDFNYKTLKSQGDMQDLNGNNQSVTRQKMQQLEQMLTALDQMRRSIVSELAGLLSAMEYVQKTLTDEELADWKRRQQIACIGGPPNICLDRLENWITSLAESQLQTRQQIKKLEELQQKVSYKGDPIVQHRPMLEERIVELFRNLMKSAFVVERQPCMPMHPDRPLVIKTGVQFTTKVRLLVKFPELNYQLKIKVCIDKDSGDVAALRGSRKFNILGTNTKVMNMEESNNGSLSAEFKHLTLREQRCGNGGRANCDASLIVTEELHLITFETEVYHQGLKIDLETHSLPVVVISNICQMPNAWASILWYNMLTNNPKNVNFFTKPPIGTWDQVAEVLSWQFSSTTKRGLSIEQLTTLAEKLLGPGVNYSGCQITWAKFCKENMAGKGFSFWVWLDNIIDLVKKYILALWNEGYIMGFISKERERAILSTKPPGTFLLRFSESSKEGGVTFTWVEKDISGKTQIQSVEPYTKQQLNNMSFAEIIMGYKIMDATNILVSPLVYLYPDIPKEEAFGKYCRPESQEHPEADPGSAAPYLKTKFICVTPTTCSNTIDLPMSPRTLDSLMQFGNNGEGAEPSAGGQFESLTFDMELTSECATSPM

B1: 5-carboxyfluorescein (FITC)-GpYLPQTV phospho-tyrosine peptide probe (STAT3) (peptide)
peptide: G[pY]LPQTV
modifications: not fully specified (N-terminus)
notes: pTyr peptide that corresponds with a STAT docking site of the upstream receptor; also called FITC-pTyr peptide; pTyr
Q: Does B1 bind?
A: binds
